How the values were obtained:
DFB-1 = biological target: T1, DFB-1; assay: SEC of mixed components; trimer listed in Table 6
T1 construct: Bivalent connector
T1 chain: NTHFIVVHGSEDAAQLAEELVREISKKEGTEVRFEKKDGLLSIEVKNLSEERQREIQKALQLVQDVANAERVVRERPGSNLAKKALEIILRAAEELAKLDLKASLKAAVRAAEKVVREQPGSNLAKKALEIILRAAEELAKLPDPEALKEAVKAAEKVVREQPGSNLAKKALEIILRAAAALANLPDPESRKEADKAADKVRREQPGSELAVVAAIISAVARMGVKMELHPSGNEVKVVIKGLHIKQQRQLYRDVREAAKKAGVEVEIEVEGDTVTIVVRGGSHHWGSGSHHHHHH

DFB0 = biological target: T2, DFB0; assay: SEC of mixed components; trimer listed in Table 6
T2 construct: Bivalent connector
T2 chain: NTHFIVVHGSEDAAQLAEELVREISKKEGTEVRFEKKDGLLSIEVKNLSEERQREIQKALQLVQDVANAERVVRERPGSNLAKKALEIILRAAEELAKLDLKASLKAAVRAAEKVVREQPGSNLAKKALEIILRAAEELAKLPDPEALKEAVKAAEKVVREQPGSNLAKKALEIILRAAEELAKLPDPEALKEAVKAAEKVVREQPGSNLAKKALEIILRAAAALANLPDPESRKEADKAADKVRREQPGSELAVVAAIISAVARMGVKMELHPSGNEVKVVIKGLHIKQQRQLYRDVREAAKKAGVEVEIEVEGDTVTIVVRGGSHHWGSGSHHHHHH

TF10 = biological target: T3, TF10; assay: SEC (A230) of A---, -BCD and ABCD and negative-stain EM; components named in the legend of FIG. 17A, which paragraph 104 ties to FIG. 4A
T3 construct: Trivalent connector
T3 chain: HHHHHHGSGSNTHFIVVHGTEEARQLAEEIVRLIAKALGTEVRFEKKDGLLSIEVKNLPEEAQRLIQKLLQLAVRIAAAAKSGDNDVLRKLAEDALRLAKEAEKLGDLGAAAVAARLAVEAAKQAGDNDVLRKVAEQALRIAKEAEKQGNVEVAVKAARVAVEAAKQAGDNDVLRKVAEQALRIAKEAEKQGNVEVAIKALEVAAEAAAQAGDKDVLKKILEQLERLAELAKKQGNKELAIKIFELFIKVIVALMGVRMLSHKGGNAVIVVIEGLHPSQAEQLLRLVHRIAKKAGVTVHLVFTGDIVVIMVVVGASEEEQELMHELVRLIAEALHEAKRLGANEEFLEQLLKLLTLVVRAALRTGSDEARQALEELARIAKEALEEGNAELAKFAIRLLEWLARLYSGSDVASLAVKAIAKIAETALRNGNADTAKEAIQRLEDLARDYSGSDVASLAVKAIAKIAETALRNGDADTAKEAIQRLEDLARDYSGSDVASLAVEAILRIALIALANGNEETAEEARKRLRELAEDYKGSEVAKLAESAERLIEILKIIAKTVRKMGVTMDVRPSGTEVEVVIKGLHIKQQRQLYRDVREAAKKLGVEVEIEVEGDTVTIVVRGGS
Method: Complexes and individual components were diluted in 20 mM Tris pH 8.0, 100 mM NaCl. After o/n equilibration of the mixtures at room temperature or 4 degrees C., 500 ul of sample was injected onto a Superdex™ 200 10/300 increase GL (dimers, linear assemblies) or Superose™ 6 increase 10/300 GL (symmetric assemblies) (all columns from GE healthcare) using the absorbance at 230 nm or 473 nm (for GFP tagged components) as read-out. Dimers were mixed at monomer concentrations of 5 μM or higher. Trimer and ABCD tetramer mixtures contained 5 μM of the bivalent connector, and 7.5 μM of each terminal cap (lower absolute concentrations with the same ratios were used for some trimers). ABCA tetramer mixtures contained 5 μM per bivalent connector and 15 μM terminal cap. The hexamer mixture contained 3 μM of components C and D, 3.6 μM of B and E, and 4.4 μM of A and F. The branched assembly shown in FIG. 4A contained 2.8 μM of the trivalent connector and 4 μM of each cap. For the exchange experiment shown in FIG. 5A, the ABC trimer was preincubated at concentrations of 6 μM B and 9 μM each of A and C. C′ was then added to reach a final concentration of 2 μM B, 3 μM each of A and C, and 6 μM C′.
SEC peak fractions were concentrated prior to negative stain EM screening. Samples were then immediately diluted 5 to 150 times in TBS buffer (25 mM Tris pH 8.0, 25 mM NaCl) depending on sample concentration. A final volume of 5 μL was applied to negatively glow discharged, carbon-coated 400-mesh copper grids (01844-F, TedPella, Inc.), then washed with Milli-Q™ Water and stained using 0.75% uranyl formate as previously described (53). Air-dried grids were imaged on a FEI Talos L120C TEM (FEI Thermo Scientific, Hillsboro, OR) equipped with a 4K×4K Gatan OneView™ camera at a magnification of 57,000× and pixel size of 2.51. Micrographs were imported into CisTEM software or cryoSPARC™ software and a circular blob picker was used to select particles which were then subjected to 2D classification. […]

TF3 = biological target: T4, TF3; assay: SEC of the trivalent connector TF3, its three caps and the full mixture, with SDS-PAGE of the fractions; components named in the legend
T4 construct: Trivalent connector
T4 chain: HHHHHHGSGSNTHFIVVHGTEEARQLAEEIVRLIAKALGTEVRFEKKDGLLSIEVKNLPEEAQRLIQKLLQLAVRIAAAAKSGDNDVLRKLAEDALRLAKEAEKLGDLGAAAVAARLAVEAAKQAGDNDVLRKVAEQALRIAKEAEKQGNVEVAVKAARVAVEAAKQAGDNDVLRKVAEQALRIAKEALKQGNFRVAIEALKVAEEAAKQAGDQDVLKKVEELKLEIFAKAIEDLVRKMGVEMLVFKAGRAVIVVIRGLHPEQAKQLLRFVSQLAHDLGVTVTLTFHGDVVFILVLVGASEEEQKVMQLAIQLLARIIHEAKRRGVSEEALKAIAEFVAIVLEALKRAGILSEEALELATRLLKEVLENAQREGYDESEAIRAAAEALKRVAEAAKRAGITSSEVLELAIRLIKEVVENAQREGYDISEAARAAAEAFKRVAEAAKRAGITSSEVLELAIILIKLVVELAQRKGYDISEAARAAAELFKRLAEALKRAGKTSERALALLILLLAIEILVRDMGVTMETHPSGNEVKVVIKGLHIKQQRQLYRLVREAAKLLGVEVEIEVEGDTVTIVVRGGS

Measured: binding result

B1: 101B62 (designed binder)
chain: HHHHHHGSGLNDIFEAQKIEWHEAENLYFQSGSNDEKRKRAEKALQRAQEAEKKGDVEEAVRAAQEAVRAAKESGDNDVLRKVAEQALRIAKEAEKQGNVEVAVKAARVAVEAAKQAGDNDVLRKVAEQALRIAKEALKQGNVDVAAKAAQVAEEAAKQAGDQDVLRKVKEVQIEIVLAAIELTVRKMGVTMETHRSGREVKVVIKGLHESQQEQLLEDVLRIAELAGVRVRIRFKGDTVTIVVRG
notes: also called LHD101B62
binds: all assays above

B2: 274A53 (designed binder)
chain: TTNFHLINGSEEARQLIEKAVRAISKKEGTEVHFEKSDGTLEIRVKNLHEKREREIKKVIELILEVAAAERIVRERPGSNLAKKALEIILRAAEELAKADVDAALEAAVRAAEKVVREQPGSNLAKKALEIILRAAEELAKLPDPEALKEAVKAAEKVVREQPGSELAKKALEIIERAAEELKKSPDPEAQKEAKKAEQKVREESGSHHWGSGLNDIFEAQKIEWHEGSHHHHHH
notes: also called LHD274A DHR53 stop; LHD274A53
binds: all assays above
